Experimental findings from doi:10.1101/2021.04.01.438030 are described below.

This experiment deals with SNAP-GLP-1R (glucagon-like peptide-1 receptor with an N-terminal SNAP-tag) on HEK293-SNAP-GLP-1R cells (UniProt P43220). Description: FRET.
Chain of UniProt P43220 (P43220 24-463): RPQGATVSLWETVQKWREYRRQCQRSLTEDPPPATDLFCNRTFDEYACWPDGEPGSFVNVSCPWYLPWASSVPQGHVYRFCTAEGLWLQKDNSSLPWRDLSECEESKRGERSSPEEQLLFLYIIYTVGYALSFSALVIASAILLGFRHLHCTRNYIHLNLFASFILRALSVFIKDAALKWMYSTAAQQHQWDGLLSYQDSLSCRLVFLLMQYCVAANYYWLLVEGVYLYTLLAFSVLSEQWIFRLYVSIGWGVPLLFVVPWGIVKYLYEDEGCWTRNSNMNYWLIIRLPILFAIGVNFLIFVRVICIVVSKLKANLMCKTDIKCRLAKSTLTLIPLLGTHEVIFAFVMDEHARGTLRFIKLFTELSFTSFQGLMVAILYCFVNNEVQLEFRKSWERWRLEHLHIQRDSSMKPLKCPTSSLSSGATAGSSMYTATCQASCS

The Ki is a measure of affinity in units of concentration, obtained from inhibition or displacement. A lower Ki goes with a stronger hold on the target. “exendin-4-C16 (from UniProt P26349 48-87)”: the Ki worked out at 1.6 nM. In other words, the single-digit nanomolar range.

Substance exendin-4 (from UniProt P26349 48-87) registered a Ki of 0.63 nM. Compared with the last substance, the Ki is about 2.5-fold lower.
